Source: US20220249679A1, “BI-SPECIFIC BINDING AGENTS TARGETING SYNDECAN-1 AND FIBROBLAST GROWTH FACTOR RECEPTOR” (Mitsubishi Tanabe Pharma Corporation, priority 2018, published 2022)
“And” between values parts separate entries of the source, which are not always exact repeats. Equal entries are not always repeated.

Experiments:
Human CD138 His (human) [1] = biological target: Human CD138 His (human) (UniProt P18827); test: SPR, summary table
Human CD138 His (human) [2] = biological target: Human CD138 His (human) (UniProt P18827); test: SPR (BioRad Proteon), CD138 His immobilized, bivalent analyte fit

Human CD138 His (human), sequence (P18827 23-254 limits assumed): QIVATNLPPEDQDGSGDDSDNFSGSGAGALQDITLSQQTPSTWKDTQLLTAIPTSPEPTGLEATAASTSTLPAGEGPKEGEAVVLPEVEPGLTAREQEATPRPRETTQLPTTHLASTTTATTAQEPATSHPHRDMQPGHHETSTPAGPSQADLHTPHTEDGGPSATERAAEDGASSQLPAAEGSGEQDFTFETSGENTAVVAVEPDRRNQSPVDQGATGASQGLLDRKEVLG

Kd (Human CD138 His (human) [1]): 2 nM | Kd (Human CD138 His (human) [2]): 1.95 nM and 2 nM | koff (Human CD138 His (human) [2]): 0.000666 s⁻¹ | kon (Human CD138 His (human) [2]): 342000 M⁻¹ s⁻¹
Substance: mBT062 (antibody)
